# Bridges are numbered along the chain shown (N, C = ends). Where no end group is shown, it is not given here. [ ]: non-standard residue; d: D form. triazolo‑Pro(2,4-diMe-benzyl) = triazolo-proline with ortho- and para-methyl phenyl methyl on the triazole; triazolo‑Pro(3,4-diMe-benzyl) = triazolo-proline with para- and meta-methyl phenyl methyl on the triazole; triazolo‑Pro(3,5-diMe-benzyl) = triazolo-proline with two meta-methyl phenyl methyl on the triazole; triazolo‑Pro(2-Me-benzyl) = triazolo-proline with ortho-methyl phenyl methyl on the triazole; triazolo‑Pro(3-Me-benzyl) = triazolo-proline with meta-methyl phenyl methyl on the triazole; triazolo‑Pro(4-Me-benzyl) = triazolo-proline with para-methyl phenyl methyl on the triazole; triazolo‑Pro(4-tBu-phenyl) = triazolo-proline with para-tert-butylphenyl on the triazole; triazolo‑Pro(ferrocenyl) = triazolo-proline carrying a ferrocene moiety on the triazole; triazolo‑Pro(benzyl) = triazolo-proline with phenyl methyl moiety on the triazole; triazolo‑Pro(biphenyl) = triazolo-proline with biphenyl group on the triazole
# B1: cPT 26 (peptide)
# peptide: DNI[triazolo‑Pro(3-Me-benzyl)]WK-NH2
# modifications: lactam 1-6
# B2: cPT 28 (peptide)
# peptide: DNI[triazolo‑Pro(3,5-diMe-benzyl)]WK-NH2
# modifications: lactam 1-6
# B3: cPT 25 (peptide)
# peptide: DNI[triazolo‑Pro(2-Me-benzyl)]WK-NH2
# modifications: lactam 1-6
# B4: cPT 20 (peptide)
# peptide: DNIPWK-NH2
# modifications: lactam 1-6; not fully specified (residue 4); also: further groups not given here
# B5: cPT 19 (peptide)
# peptide: DNI[triazolo‑Pro(benzyl)]WK-NH2
# modifications: lactam 1-6
# B6: cPT 22 (peptide)
# peptide: DNI[triazolo‑Pro(4-tBu-phenyl)]WK-NH2
# modifications: lactam 1-6
# B7: cPT 21 (peptide)
# peptide: DNI[triazolo‑Pro(4-iPr-phenyl)]WK-NH2
# modifications: lactam 1-6
# B8: cPT 27 (peptide)
# peptide: DNI[triazolo‑Pro(2,4-diMe-benzyl)]WK-NH2
# modifications: lactam 1-6
# B9: cPT 29 (peptide)
# peptide: DNI[triazolo‑Pro(3,4-diMe-benzyl)]WK-NH2
# modifications: lactam 1-6
# B10: cPT 24 (peptide)
# peptide: DNI[triazolo‑Pro(4-Me-benzyl)]WK-NH2
# modifications: lactam 1-6
# B11: cPT 23 (peptide)
# peptide: DNI[triazolo‑Pro(biphenyl)]WK-NH2
# modifications: lactam 1-6
# B12: cPT 36 (29N-2) (peptide)
# peptide: DNI[4‑(4-(4-(thiophen-2-yl)phenyl)-1H-1,2,3-triazol-1-yl)proline]WK-NH2
# modifications: lactam 1-6
# notes: also called Compound 29N-2
# B13: cPT 18 (peptide)
# peptide: DNI[triazolo‑Pro]WK-NH2
# modifications: lactam 1-6; not fully specified
# B14: cPT 3 (AAR029b) (peptide)
# peptide: DNI[triazolo‑Pro(ferrocenyl)]WK-NH2
# modifications: lactam 1-6
# notes: Ferrocene-containing parent cyclic peptide triazole; also called lead cPT 3
# Molecular target: T1, wild type monomeric full-length HIV-1 YU-2 gp120 (HIV-1 YU-2, UniProt P35961 32-498)
# T1 construct: domain: gp120; also called gp120YU-2; gp120 YU-2
# Test: SPR competition: gp120 YU-2 with increasing peptide over immobilised soluble CD4; competitor CD4
# Experimental: (§1) For kinetic analyses, typically 2000-3000 RUs of protein reagents are immobilized on SPR chips, and analytes are passed over the surface at 50-100 μL/min. Surface regeneration is achieved by a 5 μL injection of 10 mM HCl solution at 100 μL/min.
# (§2) Data analysis of SPR competition data was performed using BIAevaluation v4.1.1 software (GE). To correct for nonspecific binding, response signals from buffer injection and from control flow cell were subtracted from all sensorgrams. […] The inhibition curve was plotted and then fitted using the four-parameter equation as shown below using OriginPro 8 graphing software.
row,Binder,IC50 [nM]
1,B1,234
2,B2,926
3,B3,132
4,B4,956
5,B5,257
6,B6,150
7,B7,1200
8,B8,130
9,B9,2800
10,B10,80
11,B11,680

# Molecular target: T1, wild type monomeric full-length HIV-1 …
# Test: as above
# Remark: another data set of the same source
# Experimental: as §1, §2
row,Binder,IC50 [nM]
1,B12,~66

# Molecular target: HIV-1 BaL.01 Env gp160 on pseudovirus (HIV-1 BaL.01)
# Test: cell-based or functional assay
Binder,"HIV-1 cell infection inhibition, fold lower potency against cPT 24 [fold]",HIV-1 cell infection inhibition IC50 [nM],HIV-1 infection inhibition IC50 [nM],HIV-1Bal.01 infection inhibition IC50 [nM]
B3,~28,–,–,–
B13,–,~1300,–,–
B12,–,–,~105,–
B14,–,–,–,~237

# Molecular target: HIV-1 BaL.01 Env gp160 on pseudovirus (HIV-1 BaL.01)
# Test: cell-based or functional assay
# Remark: another data set of the same source
row,Binder,HIV-1Bal.01 infection inhibition IC50 [nM]
1,B1,220
2,B2,2000
3,B3,5100
4,B13,1400
5,B4,1200
6,B5,438
7,B6,350
8,B7,900
9,B8,302
10,B9,8000
11,B10,180
12,B11,269

# Molecular target: T1, wild type monomeric full-length HIV-1 …
# Test: SPR competition: gp120 YU-2 with increasing peptide over immobilised 17b; competitor 17b
# Experimental: as §1, §2
row,Binder,IC50 [nM]
1,B12,~56

# Molecular target: T1, wild type monomeric full-length HIV-1 …
# Test: ITC with monomeric gp120 YU-2
# Experimental: (§3) The resulting heat changes were integrated, and the values obtained were fitted to a quadratic binding equation (one site binding model).
# (§4) cPT dissociation constants were determined at 25° C. on a VP-Isothermal Titration Calorimeter (VP-ITC) system (MicroCal™, GE Healthcare, Freiburg). […] The resulting heat change upon injection was integrated over a time range of 300 sec, and the obtained values were fitted to a standard single-site binding model using ORIGIN®.
row,Binder,-TΔS [kcal/mol]
1,B12,-4.74
2,B14,-2.75

# Molecular target: T1, wild type monomeric full-length HIV-1 …
# Test: SPR competition: gp120 YU-2 with increasing peptide over immobilised 17b; competitor 17b
# Remark: another data set of the same source
# Experimental: as §1, §2
row,Binder,IC50 [nM]
1,B1,228
2,B2,918
3,B3,128
4,B13,647
5,B4,820
6,B5,269
7,B6,120
8,B7,1260
9,B8,136
10,B9,2600
11,B10,74
12,B11,720

# Molecular target: T1, wild type monomeric full-length HIV-1 …
# Test: ITC, peptide titrated into 30 µM full-length gp120 YU-2, 25 °C, PBS pH 7.3
# Experimental: as §3, §4
Binder,Kd [nM],ΔH [kcal/mol],ΔS [kcal/mol]
B12,350,-4.07,0.0159
B14,415,-5.96,0.00922

# Molecular target: T1, wild type monomeric full-length HIV-1 …
# Test: SPR competition: fixed HIV-1 YU-2 gp120 mixed with rising concentrations of 36 and passed over immobilized soluble CD4; y axis % gp120 binding to CD4 falls from about 97 to about 10 between about 5 and 2500 nM
# Experimental: as §1, §2
row,Binder,IC50 [nM]
1,B12,66

# Molecular target: T1, wild type monomeric full-length HIV-1 …
# Test: SPR competition: gp120 YU-2 with increasing peptide over immobilised soluble CD4; competitor CD4; CD4 competition column, not 17b competition
# Experimental: as §1, §2
row,Binder,IC50 [nM]
1,B13,614

# Molecular target: T1, wild type monomeric full-length HIV-1 …
# Test: SPR competition: fixed HIV-1 YU-2 gp120 mixed with rising concentrations of 36 and passed over immobilized 17b; y axis % gp120 binding to 17b falls from about 100 to near 0 between about 2 and 2500 nM
# Experimental: as §1, §2
row,Binder,IC50 [nM]
1,B12,56
